This passage reports EC50 of TRPV1 activation (two-electrode voltage clamp, oocytes), fold over wild-type DkTx (fold over wild-type DkTx) results from PMC6326545.

The target of this assay is rat TRPV1 ion channel (rat) (UniProt O35433).
UniProt O35433, sequence (O35433 whole entry): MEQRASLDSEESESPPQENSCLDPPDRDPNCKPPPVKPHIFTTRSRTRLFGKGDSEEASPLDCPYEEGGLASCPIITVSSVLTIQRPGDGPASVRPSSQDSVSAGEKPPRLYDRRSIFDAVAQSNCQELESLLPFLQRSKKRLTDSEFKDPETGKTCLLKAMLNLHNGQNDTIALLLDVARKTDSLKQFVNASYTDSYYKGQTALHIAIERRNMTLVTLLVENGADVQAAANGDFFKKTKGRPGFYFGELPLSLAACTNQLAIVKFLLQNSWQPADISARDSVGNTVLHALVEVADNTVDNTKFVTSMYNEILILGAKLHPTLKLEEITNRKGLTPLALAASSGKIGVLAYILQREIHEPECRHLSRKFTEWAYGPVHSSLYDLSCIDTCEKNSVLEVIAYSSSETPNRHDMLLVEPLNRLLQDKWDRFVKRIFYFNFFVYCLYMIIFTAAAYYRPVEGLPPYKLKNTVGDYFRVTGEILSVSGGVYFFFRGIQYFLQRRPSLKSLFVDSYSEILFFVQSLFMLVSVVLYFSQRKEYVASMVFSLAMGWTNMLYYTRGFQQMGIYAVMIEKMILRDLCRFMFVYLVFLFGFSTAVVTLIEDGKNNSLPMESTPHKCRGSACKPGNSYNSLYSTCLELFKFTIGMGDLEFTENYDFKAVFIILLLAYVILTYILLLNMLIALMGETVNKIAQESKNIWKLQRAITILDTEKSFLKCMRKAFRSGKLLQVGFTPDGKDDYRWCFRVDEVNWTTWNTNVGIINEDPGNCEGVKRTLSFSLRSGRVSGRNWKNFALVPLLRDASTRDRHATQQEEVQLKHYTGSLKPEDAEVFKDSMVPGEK

DkTx E7A (natural protein) yielded an EC50 of TRPV1 activation (two-electrode voltage clamp, oocytes), fold over wild-type DkTx (fold over wild-type DkTx) of 11. The figure for DkTx V8A (natural protein) is 16.
